Reference: patent publication US20170224799A1 (UNIVERSITY OF CONNECTICUT, published 2017)

B1: Ccdc136 Mut peptide ELQGLLEDEL (peptide)
peptide: ELQGLLEDEL
B2: Atxn10.1 Mut peptide QVFPGLMEL (peptide)
peptide: QVFPGLMEL
B3: Tnpo3.3 Mut peptide SYMLQALCIP (peptide)
peptide: SYMLQALCIP
B4: Atxn10.2 Mut peptide VFPGLMEL (peptide)
peptide: VFPGLMEL
B5: Zfp236.2 Mut peptide EYLDLQTQG (peptide)
peptide: EYLDLQTQG
B6: Slit3 Mut peptide GFHGCIHEVL (peptide)
peptide: GFHGCIHEVL
B7: Tnpo3.4 WT peptide LDMLQALC (peptide)
peptide: LDMLQALC
B8: Alkbh6.2 Mut peptide DYVPMEQPR (peptide)
peptide: DYVPMEQPR
B9: Tnpo3.3 WT peptide LDMLQALCIP (peptide)
peptide: LDMLQALCIP
B10: Tnpo3.4 Mut peptide SYMLQALC (peptide)
peptide: SYMLQALC
B11: Stau1.4 Mut peptide ALKSEEKTL (peptide)
peptide: ALKSEEKTL

How the values were obtained:
H-2 D^d = biological target: T1, H-2 D^d (mouse, UniProt P01900 25-311, limits assumed); test: direct peptide-binding studies
T1 construct: construct not described
T1 sequence (MHC heavy, looked up): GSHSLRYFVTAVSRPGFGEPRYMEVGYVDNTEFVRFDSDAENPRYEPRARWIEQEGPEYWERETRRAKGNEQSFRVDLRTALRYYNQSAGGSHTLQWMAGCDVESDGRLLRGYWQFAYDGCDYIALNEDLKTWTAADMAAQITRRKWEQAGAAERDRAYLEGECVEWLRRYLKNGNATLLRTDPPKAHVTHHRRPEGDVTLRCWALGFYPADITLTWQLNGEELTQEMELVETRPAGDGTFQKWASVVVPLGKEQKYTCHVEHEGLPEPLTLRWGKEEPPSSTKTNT

H-2 L^d = biological target: T2, H-2 L^d (mouse, UniProt P01897 25-309, limits assumed); test: direct peptide-binding studies
T2 construct: construct not described
T2 sequence (MHC heavy, looked up): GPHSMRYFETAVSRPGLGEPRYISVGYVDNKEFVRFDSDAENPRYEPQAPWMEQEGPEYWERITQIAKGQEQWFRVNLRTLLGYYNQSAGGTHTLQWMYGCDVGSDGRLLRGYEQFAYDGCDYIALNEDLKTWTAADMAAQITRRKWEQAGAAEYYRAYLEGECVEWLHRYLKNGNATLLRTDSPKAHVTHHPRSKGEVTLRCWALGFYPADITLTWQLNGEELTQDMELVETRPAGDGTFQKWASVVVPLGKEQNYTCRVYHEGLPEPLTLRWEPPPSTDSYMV

H-2 K^d = H-2 K^d (mouse, UniProt P01902 22-305); test: competition with radiolabeled standard peptide, purified H-2 K^d
Sequence of H-2 K^d (P01902 22-305): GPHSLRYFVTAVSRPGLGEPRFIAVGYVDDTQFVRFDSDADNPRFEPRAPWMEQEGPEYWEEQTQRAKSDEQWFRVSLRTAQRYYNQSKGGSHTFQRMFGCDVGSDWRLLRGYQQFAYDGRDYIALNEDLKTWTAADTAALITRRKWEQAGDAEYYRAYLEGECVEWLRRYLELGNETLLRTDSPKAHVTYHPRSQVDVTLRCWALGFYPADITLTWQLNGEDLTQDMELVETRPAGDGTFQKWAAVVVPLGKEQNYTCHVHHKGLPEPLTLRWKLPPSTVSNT

| Binder | binding result (H-2 D^d) | binding result (H-2 L^d) | IC50 (H-2 K^d) [nM] |
| --- | --- | --- | --- |
| B1 | no binding | no binding | – |
| B2 | no binding | no binding | – |
| B3 | – | – | 67 |
| B4 | no binding | no binding | – |
| B5 | – | – | 10000 |
| B6 | no binding | no binding | – |
| B7 | – | – | 89 |
| B8 | no binding | no binding | – |
| B9 | – | – | 111 |
| B10 | – | – | 14900 |
| B11 | no binding | no binding | – |
